# From the supplement of paper PMC7877785
# ± gives the uncertainty stated by the source.
# Experiment: self-splicing fitness, log relative to wild type (ln ratio); higher = more splicing; Tetrahymena group I intron in knt gene, E. coli kanamycin selection, DiMSum; sequences stand for … in CUCUCU…GGAGGGAAAAGUUAUCAGGCAUGCACCUGGUAGCUAGUCUUUAAACCAAUAGAUUGCAUCGGUUUAAAAGGCAAGACCGUCAAAUUGCGGGAAAGGGGUCAACAGCCGUUCAGUACCAAGUCUCAGGGGAAACUUUGAGAUGGCCUUGCAAAGGGUAUGGUAAUAAGCUGACGGACAUGGUCCUAACCACGCAGCCAAGUCCUAAGUCAACAGAUCUUCUGUUGAUAUGGAUGCAGUUCACAGACUAAAUGUCGGUCGGGGAAGAUGUAUUCUUCUCAUAAGAUAUAGUCGGACCUCUCCUUAAUGGGAGCUAGCGGAUGAAGUGAUGCAACACUGGAGCCGCUGGGAACUAAUUUGUAUGCGAAAGUAUAUUGAUUAGUUUUGGAGUACUCGUGGUCG
# Procedure, shortened: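 Pooled colonies went to amplicon sequencing on an Illumina HiSeq 2500 after six replicate transformations. The plates were LB agar with 100 μg/mL carbenicillin, 50 μM IPTG and 0.2% rhamnose, with or without 25 μg/mL kanamycin, incubated overnight at 37°C or 30°C. The E. coli BL21(DE3) library had all eight P1ex-region intron nucleotides randomised, the intron placed in the knt kanamycin-resistance gene on pET-22b(+). DiMSum fitness is the error-weighted combination of replicate fold changes, kanamycin against none, normalised to wild type.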
Sequence,self-splicing fitness (ln) (30 °C),self-splicing fitness (ln) (37 °C)
GCGAAGCAAUAUUACGGGUG,-1.77 ± 0.085,-1.88 ± 0.1
CUGCAGCAAUAUUACGCUUU,-4.46 ± 0.28,-2.6 ± 0.26
GCUCAGCAAUAUUACGGCAA,-1.98 ± 0.16,-1.1 ± 0.17
AUGGAGCAAUAUUACGGGUG,-3.75 ± 0.39,-2.18 ± 0.22
CCAUAGCAAUAUUACGCUAG,-3.8 ± 0.47,-1.82 ± 0.23
UUAAAGCAAUAUUACGGCGC,-0.589 ± 0.11,0.34 ± 0.17
GACAAGCAAUAUUACGACUA,-0.408 ± 0.058,0.117 ± 0.066
CUGGAGCAAUAUUACGUGAA,-3.42 ± 0.22,-2.01 ± 0.16
GAGCAGCAAUAUUACGGGGU,-2.96 ± 0.16,-3.18 ± 0.17
ACUCAGCAAUAUUACGUCCU,-1.18 ± 0.094,0.185 ± 0.11
CUUUAGCAAUAUUACGGGGC,-3.44 ± 0.28,-2.54 ± 0.38
CCUCAGCAAUAUUACGGGCU,-2.67 ± 0.18,-2.57 ± 0.25
CAACAGCAAUAUUACGAUCU,-2.02 ± 0.13,-0.986 ± 0.12
GCAAAGCAAUAUUACGGUCU,-1.38 ± 0.087,0.608 ± 0.1
CACCAGCAAUAUUACGCAUC,-2.88 ± 0.13,-3.35 ± 0.23
CAGCAGCAAUAUUACGACAC,-2.83 ± 0.23,-2.45 ± 0.26
AAAGAGCAAUAUUACGGGAA,-2.67 ± 0.32,-2.16 ± 0.28
CCCUAGCAAUAUUACGGUCG,-2.02 ± 0.068,-0.697 ± 0.092
AAAGAGCAAUAUUACGGUUC,–,-2.82 ± 0.36
AUUCAGCAAUAUUACGACAC,-1.45 ± 0.14,0.224 ± 0.17
UGGAAGCAAUAUUACGAGCA,-0.526 ± 0.082,0.193 ± 0.1
GUUUAGCAAUAUUACGCUGU,-1.52 ± 0.12,-2 ± 0.14
UAGAAGCAAUAUUACGUCCU,-0.903 ± 0.12,-0.0829 ± 0.17
UCGUAGCAAUAUUACGGUCA,-0.782 ± 0.16,-0.0592 ± 0.13
UUGUAGCAAUAUUACGUACC,-2.08 ± 0.16,-1.29 ± 0.17

Sequence,self-splicing fitness (ln) (30 °C),self-splicing fitness (ln) (37 °C)
CAAAAGCAAUAUUACGUUCA,-1.67 ± 0.11,-0.976 ± 0.1
ACCAAGCAAUAUUACGCGUC,-3.45 ± 0.2,-2.46 ± 0.22
ACGAAGCAAUAUUACGACAC,-2.4 ± 0.13,-0.952 ± 0.14
AUCUAGCAAUAUUACGGUAA,-0.976 ± 0.12,-0.736 ± 0.14
AAACAGCAAUAUUACGGAGA,-2.87 ± 0.15,-2.57 ± 0.15
GUCGAGCAAUAUUACGUACG,-2.29 ± 0.26,-2.44 ± 0.41
GGGUAGCAAUAUUACGCUUA,-0.435 ± 0.15,-0.957 ± 0.13
UACAAGCAAUAUUACGAUGG,-1.37 ± 0.079,-0.712 ± 0.085
AUCCAGCAAUAUUACGCACC,-1.19 ± 0.13,0.657 ± 0.17
CUUUAGCAAUAUUACGUUUG,-2.43 ± 0.17,-1.5 ± 0.17
ACACAGCAAUAUUACGUCUC,-3.26 ± 0.099,-1.25 ± 0.08
UGUUAGCAAUAUUACGGGGA,-2.84 ± 0.22,-2.2 ± 0.19
CUGUAGCAAUAUUACGAUGC,-2.62 ± 0.17,–
UUAUAGCAAUAUUACGGACA,-1.66 ± 0.14,-0.61 ± 0.12
CUAGAGCAAUAUUACGUCAG,-0.419 ± 0.08,-0.271 ± 0.11
GACGAGCAAUAUUACGUUAA,-3.77 ± 0.27,-2.79 ± 0.25
UGACAGCAAUAUUACGUCUU,-0.839 ± 0.049,-0.539 ± 0.07
CAGGAGCAAUAUUACGUUAA,-3.28 ± 0.43,-2.66 ± 0.26
GGUUAGCAAUAUUACGGCAA,0.963 ± 0.39,-0.363 ± 0.27
CCGCAGCAAUAUUACGAUCC,-3.04 ± 0.19,-2.71 ± 0.36
UACGAGCAAUAUUACGAUCA,-1.89 ± 0.15,-0.737 ± 0.13
UUUGAGCAAUAUUACGAGGA,-3.62 ± 0.28,-3.55 ± 0.46
UAUUAGCAAUAUUACGGUGA,-1.92 ± 0.12,-1.33 ± 0.11
GUGUAGCAAUAUUACGUCCU,-0.899 ± 0.15,-0.148 ± 0.19
UUAAAGCAAUAUUACGUUGG,-1.12 ± 0.094,-0.746 ± 0.1

Sequence,self-splicing fitness (ln) (30 °C),self-splicing fitness (ln) (37 °C)
UUUAAGCAAUAUUACGUCCA,-1.08 ± 0.22,-0.324 ± 0.27
CAAGAGCAAUAUUACGUAAC,–,-2.94 ± 0.43
AAAGAGCAAUAUUACGACCC,-2.42 ± 0.45,–
AAUUAGCAAUAUUACGCGAC,-2.66 ± 0.21,-1.61 ± 0.24
UGUUAGCAAUAUUACGAAGG,-1.88 ± 0.16,-2.16 ± 0.27
UAGCAGCAAUAUUACGCGAA,-1.54 ± 0.091,-1.24 ± 0.12
UACAAGCAAUAUUACGGGGU,-3.88 ± 0.15,-2.58 ± 0.15
ACACAGCAAUAUUACGCUCU,-0.902 ± 0.069,-0.159 ± 0.075
GAGAAGCAAUAUUACGUUUU,-2.39 ± 0.14,-1.96 ± 0.17
GCGGAGCAAUAUUACGCUCG,-2.94 ± 0.43,–
UUGGAGCAAUAUUACGGGAA,-3.64 ± 0.38,-0.82 ± 0.17
AAUUAGCAAUAUUACGUCUG,-1.72 ± 0.15,-0.251 ± 0.17
GGUGAGCAAUAUUACGCGGU,–,-1.5 ± 0.42
UUGCAGCAAUAUUACGGACG,-0.806 ± 0.17,-1.1 ± 0.23
UGUCAGCAAUAUUACGGGCU,-1.7 ± 0.086,-1.4 ± 0.12
CGAUAGCAAUAUUACGUCAG,-1.39 ± 0.13,-1.25 ± 0.14
GAAAAGCAAUAUUACGUUUA,-1.32 ± 0.11,-0.963 ± 0.1
AUUAAGCAAUAUUACGACGA,-0.668 ± 0.11,0.398 ± 0.13
CUAUAGCAAUAUUACGUCAC,-3.4 ± 0.28,-1.77 ± 0.31
UCAUAGCAAUAUUACGGCUA,-2.69 ± 0.27,-2.37 ± 0.39
AUACAGCAAUAUUACGCCUG,-1.94 ± 0.12,0.29 ± 0.13
UCCUAGCAAUAUUACGCGGA,-3.3 ± 0.26,-2.51 ± 0.25
GAUCAGCAAUAUUACGGGAC,-1.51 ± 0.085,-0.976 ± 0.1
GAGCAGCAAUAUUACGUCGC,-2.31 ± 0.14,-1.47 ± 0.15
GUUAAGCAAUAUUACGCUCA,-0.759 ± 0.1,0.0333 ± 0.13

Sequence,self-splicing fitness (ln) (30 °C),self-splicing fitness (ln) (37 °C)
AAAAAGCAAUAUUACGAGCC,-2.31 ± 0.2,-1.28 ± 0.27
ACCAAGCAAUAUUACGCUAC,-2.89 ± 0.13,-0.773 ± 0.1
UGCUAGCAAUAUUACGAAAU,-3.79 ± 0.4,-1.67 ± 0.36
CGAGAGCAAUAUUACGUCGG,-2.51 ± 0.15,-0.79 ± 0.15
CUAAAGCAAUAUUACGAAUU,-3.57 ± 0.29,-3.9 ± 0.36
UUAGAGCAAUAUUACGCCUU,-2.34 ± 0.13,-1.08 ± 0.16
GAAUAGCAAUAUUACGUUGG,-3.3 ± 0.16,-2.77 ± 0.2
GCGCAGCAAUAUUACGCACU,-1.97 ± 0.13,-1.23 ± 0.12
UCCGAGCAAUAUUACGCAUG,-2.8 ± 0.32,-2.36 ± 0.3
CCGUAGCAAUAUUACGUUUC,-3.05 ± 0.16,-3.47 ± 0.29
CGCCAGCAAUAUUACGACUU,-3.35 ± 0.2,-1.82 ± 0.18
AAUGAGCAAUAUUACGAGGA,-2.86 ± 0.36,-2.08 ± 0.36
GUACAGCAAUAUUACGAGUG,-3.17 ± 0.34,-1.25 ± 0.18
UAACAGCAAUAUUACGGGAG,-2.3 ± 0.1,-1.62 ± 0.096
CGACAGCAAUAUUACGUCGU,-4.07 ± 0.19,-2.29 ± 0.11
AGGUAGCAAUAUUACGCUAA,-1.66 ± 0.018,-0.802 ± 0.035
CCAAAGCAAUAUUACGCCGU,-3.25 ± 0.29,-3.3 ± 0.35
GUGCAGCAAUAUUACGCUAA,-0.546 ± 0.17,0.418 ± 0.15
GCUGAGCAAUAUUACGAGCC,-1.55 ± 0.43,–
UUGCAGCAAUAUUACGAAAG,–,-1.5 ± 0.35
UAUUAGCAAUAUUACGCCCA,-0.378 ± 0.23,-0.366 ± 0.3
ACGGAGCAAUAUUACGACUU,-2.69 ± 0.1,-1.37 ± 0.11
